Assay results taken from patent US20170210824A1.

Target: 3-pTza peptide library (Ac-Cys.G/A.G/A.G/A.G/A.X.G/A.G/A.G/A.G/A-CONH2, X = 3-pTza)
Test: 3-pTza peptide dot blot array

- lowest amount detected: 800 pg
B1: 3-pHis mAb SC44-8 (antibody, V domains shown)
VH: ESGRGLVQPGGSLTLTCTASGFSIDSYGFSWVRQAPGKGLEHIGYLTAGGRAFYASWAKSRSTITRNTNENTVTLKMTSLTAADTATYFCAKLGSGNPVAIWGPGTLVTVSS
VL: DPVMTPTPSFTSAAVGGTVTINCQSSQSVWRNKNLAWYQQKPGQPPKRLIYAIATLDSGVPSRFSGSGSGTQFTLTISDVQCDDAATYYCVGHYGSENDAYYAFGGGTEVVVKG
